Test results reported in patent publication US20220249563A1 (LEGEND BIOTECH IRELAND, published 2022).

Assays:
[1] = target: T1, extracellular domain of human DLL3 protein (aa27-466) having an N-terminal FLAG tag (AdipoGen, AG-40B-0151) (human, UniProt Q9NYJ7 27-466); assay: SPR (Biacore), captured antibody, human DLL3 as analyte
T1 construct: range 27-466; also called DLL3 ECD protein
T1 sequence (looked up): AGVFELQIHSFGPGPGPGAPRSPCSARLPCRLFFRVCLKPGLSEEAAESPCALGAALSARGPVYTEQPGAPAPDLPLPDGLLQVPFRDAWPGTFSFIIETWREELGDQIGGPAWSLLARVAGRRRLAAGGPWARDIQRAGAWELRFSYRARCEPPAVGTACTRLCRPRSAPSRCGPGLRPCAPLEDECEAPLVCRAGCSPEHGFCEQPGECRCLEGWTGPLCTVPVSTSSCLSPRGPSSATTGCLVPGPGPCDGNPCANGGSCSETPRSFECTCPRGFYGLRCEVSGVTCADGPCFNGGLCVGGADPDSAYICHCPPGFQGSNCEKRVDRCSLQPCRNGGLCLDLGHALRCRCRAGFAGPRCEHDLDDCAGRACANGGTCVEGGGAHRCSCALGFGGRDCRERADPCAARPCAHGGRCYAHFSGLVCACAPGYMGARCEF
Text: The camel and humanized sdAb sequences were fused with human IgG1 hinge and Fc, resulting the chimeric and humanized HCAb sequences. The DNAs encoding these HCAbs were synthesized and inserted into pTT5 vector. HCAb expression plasmids were used to transfect HEK293 cells. Crude HCAb proteins secreted to the medium were subjected to SPR affinity measurement as follows: briefly, capturing antibody anti-human Fc pAb (GE healthcare) was immobilized on a Biacore™ CM5 chip to approximately 6,000 RU using EDC-activated amine coupling chemistry. HCAb of interest was captured for 300 seconds onto the sensorchip surface. Human DLL3 (AdipoGen, AG-40B-0151) was flowed over the sensorchip surface at a series of increasing concentrations. Association and dissociation phases were monitored. Captured antibody and antigen were removed between cycles using 10 mM Glycine-HCl, pH 2.0 buffer in order to ensure a fresh binding surface for the antigen. The resulting sensorgrams were fit globally using a 1:1 binding model in order to calculate on- and off-rates (ka and kd, respectively), as well as affinities (KD).

[2] = target: T1, extracellular domain of human DLL3 …; assay: SPR (Biacore), same procedure as for the HCAbs, human DLL3 as analyte

Kd [1] [nM] | koff [1] [s⁻¹] | kon [1] [M⁻¹ s⁻¹] | koff [2] [s⁻¹] | kon [2] [M⁻¹ s⁻¹] | Kd [2] [nM] | Binder
4 | 0.00041 | 100000 | – | – | – | AS64052 HCAb (Fc fusion, not shown: a dimerising Fc or GST) QVHLMESGGGSVQAGGSLRLSCAASGYTYRSNFMGWFRQAPGKEREGIATIHSGVATTYYADSVKGRFTISQDNAKNTVYLQMNSLKPEDTAMYYCAAGGPPANADRWYPLRPPGYNYWGQGTQVTVSS
6.9 | 0.00071 | 100000 | – | – | – | AS64062 HCAb (Fc fusion, not shown: a dimerising Fc or GST) QVRLVESGGGSVQVGGSLRLSCAASRSPYSSSRCMGWFRQAPGKEREGVAALYTGGGSTSYADSVKGRFTISQDNAKNTVYLQMNSLKPEDTAMYYCAAVVPRGGSCRLDERGYYHWGQGTQVTVSS

More lines, now with the values behind:

Binder | Kd [1] [nM] | koff [1] [s⁻¹] | kon [1] [M⁻¹ s⁻¹] | koff [2] [s⁻¹] | kon [2] [M⁻¹ s⁻¹] | Kd [2] [nM]
AS64047 HCAb (Fc fusion, not shown: a dimerising Fc or GST) QVHLVESGGGSVQAGGSLRLSCAASQYVYRWDLMGWFRQAPGKEREAVAAVYTGDGITYYADSVKGRFSISQDNAKNTVYLQMNSLKPEDTGMYFCAAGFVSGGRWNQSYRYKYWGQGTQVTVSS | 6.7 | 0.00096 | 140000 | – | – | –
AS56704 scFv (scFv, V domains shown, also called A556704) VH: EVQLVESGGGLVQPGGSLRLSCAASGFNISSSYMHWVRQAPGKGLEWVAYIYPSYGYTSYADSVKGRFTISADTSKNTAYLQMNSLRAEDTAVYYCARGGYYYHGMDYWGQGTLVTVSS VL: DIQMTQSPSSLSASVGDRVTITCRASQSVSSAVAWYQQKPGKAPKLLIYSASSLYSGVPSRFSGSRSGTDFTLTISSLQPEDFATYYCQQASWSPITFGQGTKVEIK | – | – | – | 0.000559 | 66000 | –
AS56788 scFv (scFv, V domains shown, also called A556788) VH: EVQLVESGGGLVQPGGSLRLSCAASGFNISSYSMHWVRQAPGKGLEWVAYISSYYGYTYYADSVKGRFTISADTSKNTAYLQMNSLRAEDTAVYYCARYSYYYGMDYWGQGTLVTVSS VL: DIQMTQSPSSLSASVGDRVTITCRASQSVSSAVAWYQQKPGKAPKLLIYSASSLYSGVPSRFSGSRSGTDFTLTISSLQPEDFATYYCQQHYAPSLITFGQGTKVEIK | – | – | – | 0.003 | 130000 | 23
